In patent US20150368327A1 (YOKOHAMA CITY UNIVERSITY, published 2015):

T1: ovalbumin (OVA) (UniProt P01012 2-386)
T1 sequence (looked up): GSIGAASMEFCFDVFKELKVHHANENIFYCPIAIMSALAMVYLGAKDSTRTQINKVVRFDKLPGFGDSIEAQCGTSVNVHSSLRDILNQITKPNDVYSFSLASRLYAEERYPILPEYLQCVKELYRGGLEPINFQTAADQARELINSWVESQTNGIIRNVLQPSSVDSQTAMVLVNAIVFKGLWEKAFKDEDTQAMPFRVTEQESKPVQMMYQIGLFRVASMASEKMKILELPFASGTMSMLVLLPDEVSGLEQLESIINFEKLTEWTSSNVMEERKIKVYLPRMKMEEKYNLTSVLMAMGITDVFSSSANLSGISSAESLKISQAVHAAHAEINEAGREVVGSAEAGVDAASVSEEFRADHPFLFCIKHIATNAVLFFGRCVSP

T2: human Sema 3A protein (human, UniProt Q14563 21-771, limits assumed)
T2 construct: also called Human Sema 3A antigen; human-derived Sema 3A protein
T2 sequence (looked up): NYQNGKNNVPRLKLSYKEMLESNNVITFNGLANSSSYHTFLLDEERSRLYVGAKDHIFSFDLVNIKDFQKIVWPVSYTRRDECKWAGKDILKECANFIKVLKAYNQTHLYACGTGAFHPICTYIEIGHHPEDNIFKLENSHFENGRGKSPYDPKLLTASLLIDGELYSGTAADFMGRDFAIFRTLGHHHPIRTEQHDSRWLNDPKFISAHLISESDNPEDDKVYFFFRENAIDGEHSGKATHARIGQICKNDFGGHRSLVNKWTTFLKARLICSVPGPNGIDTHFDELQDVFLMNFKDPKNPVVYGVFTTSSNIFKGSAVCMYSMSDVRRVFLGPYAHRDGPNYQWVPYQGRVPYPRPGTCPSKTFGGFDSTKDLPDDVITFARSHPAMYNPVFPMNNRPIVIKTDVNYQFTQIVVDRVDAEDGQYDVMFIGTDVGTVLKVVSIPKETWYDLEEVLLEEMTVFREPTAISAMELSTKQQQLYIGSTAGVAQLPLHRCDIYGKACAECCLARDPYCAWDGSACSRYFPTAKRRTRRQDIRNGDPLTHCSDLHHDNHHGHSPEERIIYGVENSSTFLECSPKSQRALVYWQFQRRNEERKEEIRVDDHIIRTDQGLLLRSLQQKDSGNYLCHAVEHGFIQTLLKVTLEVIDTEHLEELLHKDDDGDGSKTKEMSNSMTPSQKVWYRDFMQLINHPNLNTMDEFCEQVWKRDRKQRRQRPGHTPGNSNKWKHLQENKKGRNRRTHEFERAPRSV

T3: mouse Sema 3A protein (mouse, UniProt O08665 21-772, limits assumed)
T3 construct: Produced from mouse Sema 3A protein expressing cells; also called Mouse Sema 3A antigen
T3 sequence (looked up): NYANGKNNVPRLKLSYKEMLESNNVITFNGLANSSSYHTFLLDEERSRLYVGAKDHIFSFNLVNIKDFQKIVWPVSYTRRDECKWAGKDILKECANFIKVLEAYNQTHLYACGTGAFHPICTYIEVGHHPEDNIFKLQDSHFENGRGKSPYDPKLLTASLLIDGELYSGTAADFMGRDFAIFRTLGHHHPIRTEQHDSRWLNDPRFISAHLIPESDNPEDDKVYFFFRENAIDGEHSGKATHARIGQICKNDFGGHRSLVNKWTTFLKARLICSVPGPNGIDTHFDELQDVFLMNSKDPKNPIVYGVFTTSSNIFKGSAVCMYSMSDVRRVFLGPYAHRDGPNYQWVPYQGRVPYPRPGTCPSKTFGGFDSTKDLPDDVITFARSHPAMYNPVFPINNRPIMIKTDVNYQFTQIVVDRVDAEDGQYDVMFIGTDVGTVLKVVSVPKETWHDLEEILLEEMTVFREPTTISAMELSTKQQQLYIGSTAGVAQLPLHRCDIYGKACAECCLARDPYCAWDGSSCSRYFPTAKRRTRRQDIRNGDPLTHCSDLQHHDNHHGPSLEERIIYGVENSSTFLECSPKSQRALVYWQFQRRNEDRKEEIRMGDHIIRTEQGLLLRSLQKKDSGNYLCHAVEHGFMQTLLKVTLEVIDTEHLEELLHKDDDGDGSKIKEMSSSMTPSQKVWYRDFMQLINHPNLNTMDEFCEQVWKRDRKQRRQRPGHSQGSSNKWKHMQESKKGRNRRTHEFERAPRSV


Columns and labels:
[1] = biological target: bovine serum albumin (BSA) (bovine, UniProt P02769 25-607); test: antigen solid phase ELISA: coated BSA, anti-human lambda light chain-HRP, A450
Method: (§1) The obtained avian-mouse chimeric antibody in Example 1 and the obtained humanized antibodies (Humanized-1 and Humanized-2) and avian-human chimeric antibody in Example 2 were measured for antigenic specificity by antigen solid phase ELISA with PBS buffer. The obtained avian-mouse chimeric antibody in Example 1, which was labeled with biotin, was also measured for antigenic specificity. CL18M (+) avian-mouse chimeric antibody, which served as a negative control, was also measured for antigenic specificity. Particular measurement conditions were as follows.
(§2) Firstly, 2.5 μg/mL of antigen (mouse and human Sema 3A protein) was dispensed into a 384 Well MaxiSorp Plate (Nunc) and reacted overnight at 4° C. in order to coat the plate with the antigen. Otherwise, ovalbumin (OVA) and bovine serum albumin (BSA) were immobilized in the plate as negative controls in similar manner in order to examine specificity of antibodies. After reaction, the plate was washed three times with 50 μL/well of washing solution (PBS containing 0.05% Tween 20), to which was added 25 μL/well of blocking solution (PBS buffer containing 1% bovine serum albumin), and the mixture was reacted for 30 minutes. The resultant product was washed three times with 50 μL/well of washing solution, to which were added 20 μL/well of respective antibodies and the mixture was reacted for one hour. The resultant product was washed five times with 50 μL/well of washing solution, to which was added 20 μL of diluent in which anti-human λ light chain goat antibody labeled with horseradish peroxidase (HRP) (SouthernBiotech) was diluted 4000 times with PBS buffer, in which anti-mouse IgG2A goat antibody labeled with horseradish peroxidase (HRP) (Bethyl Laboratories, Inc.) was diluted 2000 times with PBS buffer or in which streptavidin labeled with horseradish peroxidase (HRP) (Thermo Fisher Scientific K.K.) was diluted 10000 times with PBS buffer and the mixture was reacted for one hour. […] The absorbance was measured at 450 nm using Infinite M1000 (Tecan Trading AG).

ovalbumin (OVA) = biological target: T1, ovalbumin (OVA); test: antigen solid phase ELISA: coated ovalbumin, anti-human lambda light chain-HRP, A450
Method: as §1, §2

human Sema 3A protein [2] = biological target: T2, human Sema 3A protein; test: competitive ELISA on plate-coated human Sema 3A; competitor biotin-labelled avian-mouse chimeric antibody (clone No. 4-2) at 60 ng/mL
Method: (§3) The obtained clone No. 4-2-derived avian-mouse chimeric antibody in Example 1, the obtained humanized antibodies in Example 2 (Humanized-1 and Humanized-2) and avian-human chimeric antibody were subjected to competitive ELISA to evaluate affinity to the antigen. CL18M (+) avian-mouse chimeric antibody, which served as a negative control, was also measured for affinity to the antigen. Particular measurement conditions were as follows.
(§4) Firstly, 2.5 μg/mL of antigen (mouse and human Sema 3A protein) was dispensed into a 384 Well MaxiSorp Plate (Nunc) and reacted overnight at 4° C. in order to coat the plate with the antigen. The next day, the plate was washed three times with 50 μL/well of washing solution (PBS containing 0.05% Tween 20), to which was added 25 μL/well of blocking solution (PBS containing 1% bovine serum albumin) and the mixture was reacted for 30 minutes. Each of humanized antibodies (Humanized-1 and Humanized-2), avian-human chimeric antibody and avian-mouse chimeric antibody was subjected to serial doubling dilution, to which was mixed anti-Sema 3A avian-mouse chimeric antibody labeled with biotin to the final concentration of 60 ng/mL, and the mixture was reacted with the antigen solid phase plate which was washed three times with 50 μL/well of washing solution for one hour. The plate was washed five times with 50 μL/well of washing solution, to which was added 20 μL/well of diluent in which streptavidin labeled with horseradish peroxidase (HRP) (Thermo Fisher Scientific K.K.) was diluted 10000 times with PBS buffer and the mixture was reacted for 30 minutes. The plate was washed five times with 50 μL/well of washing solution, to which was added 20 μL/well of TMB+(Dako) and the mixture was chromogenically reacted for 20 minutes. Subsequently, to the each well was added 20 μL, of 1M sulfuric acid to quench the reaction. The absorbance was measured at 450 nm using Infinite M1000 (Tecan Trading AG).

mouse Sema 3A protein = biological target: T3, mouse Sema 3A protein; test: competitive ELISA on plate-coated mouse Sema 3A; competitor biotin-labelled avian-mouse chimeric antibody (clone No. 4-2) at 60 ng/mL
Method: as §3, §4

human Sema 3A protein [3] = biological target: T2, human Sema 3A protein; test: direct solid phase ELISA screening with human Sema 3A as antigen

Sequence of bovine serum albumin (BSA) (P02769 25-607 limits assumed): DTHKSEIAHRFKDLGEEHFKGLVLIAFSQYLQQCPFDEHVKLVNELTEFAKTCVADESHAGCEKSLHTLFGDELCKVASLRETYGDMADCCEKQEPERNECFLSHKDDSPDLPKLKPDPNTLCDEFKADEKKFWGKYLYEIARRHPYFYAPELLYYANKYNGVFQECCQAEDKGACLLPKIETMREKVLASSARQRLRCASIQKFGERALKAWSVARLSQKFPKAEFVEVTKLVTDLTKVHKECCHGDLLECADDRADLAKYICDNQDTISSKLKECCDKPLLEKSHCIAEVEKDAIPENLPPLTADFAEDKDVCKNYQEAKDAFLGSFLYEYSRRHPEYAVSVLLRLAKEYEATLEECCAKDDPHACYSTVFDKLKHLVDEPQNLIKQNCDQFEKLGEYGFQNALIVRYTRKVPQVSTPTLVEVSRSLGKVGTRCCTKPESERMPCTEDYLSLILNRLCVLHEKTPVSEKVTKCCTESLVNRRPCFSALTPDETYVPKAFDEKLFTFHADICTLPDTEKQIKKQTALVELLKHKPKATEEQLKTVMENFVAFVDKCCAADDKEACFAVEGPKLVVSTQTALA

| binding result [1] | binding result (ovalbumin (OVA)) | IC50 (human Sema 3A protein [2]) [µg/mL] | IC50 (mouse Sema 3A protein) [µg/mL] | binding result (human Sema 3A protein [3]) | Binder |
| --- | --- | --- | --- | --- | --- |
| no binding (tested: about 2 µg/mL) | no binding (tested: about 2 µg/mL) | 0.071 | 0.12 | – | Anti-Sema 3A humanized antibody (Humanized-1) (clone No. 4-2 strain-derived) (antibody, human IgG1, lambda, V domains shown, Human IgG1 heavy and human lambda light constant regions) VH: EVQLLESGGGLVQPGGSLRLSCAASGFTFSSYPMGWVRQAPGKGLEWVAGIDDDGDSDTRYAPAVKGRATISRDNSKNTVYLQMNSLRAEDTAVYYCAKHTGIGANSAGSIDAWGQGTLVTVSS VL: SYELTQPPSVSVSPGQTARITCSGGGSYTGSYYYGWYQQKPGQAPVTMIYYNNKRPSDIPERFSGSLSGTTNTLTISGVQAEDEADYYCGSADNSGDAFGTGTKVTVLG |
| no binding (tested: about 2 µg/mL) | no binding (tested: about 2 µg/mL) | 0.101 | 0.157 | – | Anti-Sema 3A humanized antibody (Humanized-2) (clone No. 4-2 strain-derived) (antibody, human IgG1, lambda, V domains shown, Human IgG1 heavy and human lambda light constant regions) VH: EVQLLESGGGLVQPGGSLRLSCAASGFTFSSYPMGWVRQAPGKGLEWVAGIDDDGDSDTRYAPAVKGRATISRDNSKNTVYLQMNSLRAEDTAVYYCAKHTGIGANSAGSIDAWGQGTLVTVSS VL: SYELTQPPSVSVSPGQTARITCSGGGSYTGSYYYGWYQQKPGQAPVTVIYYNNKRPSDIPERFSGSLSGTTNTLTISGVQAEDEADYYCGSADNSGDAFGTGTKVTVLG |
| no binding (tested: about 2 µg/mL) | no binding (tested: about 2 µg/mL) | 0.054 | 0.112 | – | Anti-Sema 3A avian-human chimeric antibody (clone No. 4-2-derived) (antibody, human IgG1) heavy: not shown light: ALTQPASVSANLGGTVKITCSGGGSYTGSYYYGWYQQKSPGSALVTMIYYNNKRPSDIPSRFSGSLSGSTNTLTITGVRADDEAVYFCGSADNSGDAFGAGTTLTVLGQPKANPTVTLFPPSSEELQANKATLVCLISDFYPGAVTVAWKADSSPVKAGVETTTPSKQSNNKYAASSYLSLTPEQWKSHRSYSCQVTHEGSTVEKTVAPTECS |
| – | – | – | – | binds | Anti-Sema 3A avian-mouse chimeric antibody (clone No. 165 strain-derived) (antibody, V domains shown, IgG from DT40 cells in which the constant region of chicken IgM was replaced with that of mouse IgG) VH: AVTLDESGGGLQTPGGGLSLVCKASGFTFSSYEMQWVRQAPGKGLEWVAGIYTGSTWYGAAVKGRATISRDNGQSTVRLQLNNLRAEDTAIYYCAKSGIGVNSAAFIDAWGHGTEVIVSS VL: ALTQPASVSANPGETVKITCSGGGSYGGSYYYGWYQQKAPGSAPVTVIYNNNKRPSNIPSRFSGSLSGSTNTLTITGVRADDEAVYFCGSADNSGTAFGAGTTLTVL |
| – | – | – | – | binds | Anti-Sema 3A avian-mouse chimeric antibody (clone No. 582 strain-derived) (antibody, V domains shown, IgG from DT40 cells in which the constant region of chicken IgM was replaced with that of mouse IgG) VH: AVTLDESGGGLQTPGGALSLVCKASGFTMSSYEMQWVRQAPGKGLEWVAAIYTRSTWYGAAVKGRATISRDNGQSTVRLQLNNLRAEDTGTYYCAKSGIGLNSAAFIDAWGHGTEVIVSS VL: ALTQPASVSANPGETVKITCSGGGSYGGSYYYGWYQQKAPGSAPVTVIYTNNKRPSNIPSRFSGSLSGSTNTLTITGVRADDEAVYFCGSADNSGTAFGAGTTLTVL |
